Data on five molecules can be found in article PMC9649737.

For the assay, the target named is recombinant PD-1 molecule (rPD-1), Q15116. Put plainly: ELISA. The note with it: chain shown with the change, coated antigen (rPD1): 2 µg/mL and 50 µL/well, read off a plot.
The mark [1] stands for this setting: L-chain 4 µM, parent: est. 0.94.
Setting [2] is: L-chain 20 µM, parent: est. 1.14.
Where [3] appears, read: L-chain 20 µM (prozone region for this mutant), parent: est. 1.14.

recombinant PD-1 molecule (rPD-1), Q15116, sequence (Q15116 25-167): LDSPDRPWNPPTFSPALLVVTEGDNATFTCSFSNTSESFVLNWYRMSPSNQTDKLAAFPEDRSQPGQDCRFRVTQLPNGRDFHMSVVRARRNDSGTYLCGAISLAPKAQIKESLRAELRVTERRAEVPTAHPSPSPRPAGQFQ

B1: H34 wild type (H34wt) catalytic antibody light chain T93A (protein)
chain: DIQMTQSPSTLSASVGDRVTITCRASQSISSWLAWYQQKPGKAPKVLIYKASTLESGVPLRFSGSGSGTEFTLTISSLQPDDFATYYCQQYSAYRTFGQGTKVEIK
As to B1, the response is 0.69 OD (490nm) under setting [1] and 1.1 OD (490nm) under setting [2].

B2: H34 wild type (H34wt) catalytic antibody light chain D1A (protein)
chain: AIQMTQSPSTLSASVGDRVTITCRASQSISSWLAWYQQKPGKAPKVLIYKASTLESGVPLRFSGSGSGTEFTLTISSLQPDDFATYYCQQYSTYRTFGQGTKVEIK
On to B2, for which the response was 1.12 OD (490nm) under setting [1] and 0.63 OD (490nm) under setting [3].

B3: H34 wild type (H34wt) catalytic antibody light chain R96P (protein)
chain: DIQMTQSPSTLSASVGDRVTITCRASQSISSWLAWYQQKPGKAPKVLIYKASTLESGVPLRFSGSGSGTEFTLTISSLQPDDFATYYCQQYSTYPTFGQGTKVEIK
B3: the response by setting is: under setting [1], 0.09 OD (490nm); under setting [2], 0.13 OD (490nm).

B4: H34 wild type (H34wt) catalytic antibody light chain T97A (protein)
chain: DIQMTQSPSTLSASVGDRVTITCRASQSISSWLAWYQQKPGKAPKVLIYKASTLESGVPLRFSGSGSGTEFTLTISSLQPDDFATYYCQQYSTYRAFGQGTKVEIK
Consider B4, for which the response under setting [1] was 1.15 OD (490nm) and the response under setting [3] is 0.61 OD (490nm).

B5: H34 wild type (H34wt) catalytic antibody light chain R96A (protein)
chain: DIQMTQSPSTLSASVGDRVTITCRASQSISSWLAWYQQKPGKAPKVLIYKASTLESGVPLRFSGSGSGTEFTLTISSLQPDDFATYYCQQYSTYATFGQGTKVEIK
As to B5, the response under setting [1] is 0.07 OD (490nm) and the response under setting [2] is 0.16 OD (490nm).
